Assay: yeast display, Sf9 membrane polyspecificity reagent, FACS + sequencing; frameworks hold sequencing errors
How it was run: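 In a synthetic yeast display library (Saccharomyces cerevisiae BJ5465), nanobody expression was induced with galactose for 36–48 hours. FACS gates were set low and high (top ~1%) using anti-HA fluorescence for expression and streptavidin fluorescence for binding of the Sf9 membrane reagent. Each polyreactivity label is drawn from the gate of origin.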

| Sequence | polyreactivity (PSR sort gate) |
| --- | --- |
| QVQLVESGGGLVQAGGSLRLSCAASGRIFGPYAMGWYRQAPRKERELVASISYSGGSTYYADSVKGRFTISRDNAKNTVYLQMNSLKPEDTAVYYCAKGGYWRGYNYWGQGTQVTVSS | low polyreactivity |
| QVQLVESGGGLVQAGGSLRLSCAASGRIFGPYTKGWYRQAPGKERQLVAAISCSGGSTYYADSVKGRFTISRDNAKNTVYLQMNSLKPEDTAVSYCKADHPFPQYEGGSSGQGTQVTVSS | low polyreactivity |
| QVQLVESGGGLVQAGGSLRLSCAASGRIFGPYTMGWYRQAPGKERELVAAISSTGGSTYYADSVKGRFTISRDNAKNTVYLQRNSLKPEDTAVYYCEYDYWGQGTQVTVSS | low polyreactivity |
| QVQLVESGGGLVQAGGSLRLSCAASGRIFGPYTMGWYRQAPGKERELVAAITGRVVSTYYADSVKGRFTISRDNAKNTVYLQMNSLKPEDTAVYYCAKASHYWSQRFGYWGQGTQVTVSS | high polyreactivity |
| QVQLVESGGGLVQAGGSLRLSCAASGRIFGPYVMGWYRQAPGKEREFVAAISRRTGSTYYADSVKGRFTISRDNAKNTVYLQMNSLKPEDTAVYYCAATYYFSHVVGYGYWGQGTQVTVSS | high polyreactivity |
| QVQLVESGGGLVQAGGSLRLSCAASGRIFGPYVMGWYRQAPGKERELVAAISTSGTSTYYADSVKGRFTISRDNAKNTVYLQMNSLKPEDTAVYYCAKRSGARHRLMDYWGQGTQVTVSS | low polyreactivity |
| QVQLVESGGGLVQAGGSLRLSCAASGRIFGRNAMGWYRPAPGKERELVAAITSGGSTNYADSVKGRFTISRDNAKNTVYLQMNSLKPEDAAVYYCAARRVIYVRLDYDYWGQGTQVTVSS | high polyreactivity |
| QVQLVESGGGLVQAGGSLRLSCAASGRIFGRNAMGWYRQAPGKEREFVAAISRSGASTYYADSVKGRFTISRDNAKNTVYLQMNSLKPEDTAVYYCARTTRQSSAYTYSDEYDYWGQGTQVTVSS | high polyreactivity |
| QVQLVESGGGLVQAGGSLRLSCAASGRIFGRNTMGWYRQAPGKERELVAAITGTGTTYADSVKGRFTISRDNAKNTVYLQMNSLKPEDTAVYYCAARRSVYTWVSRYNYWGQGTQVTVSS | high polyreactivity |
| QVQLVESGGGLVQAGGSLRLSCAASGRIFGRNVMGWYRQAPGKERELVAAISWIGGSTSYADSVKGRFTISRDNAKNTVYLQMNSLKPEDTAVYYCAAKPYGYRHYWGYDYWGQGTQVTVSS | high polyreactivity |
| QVQLVESGGGLVQAGGSLRLSCAASGRIFGRYAMGWYRQAPGKERELVAAITSGGRTSYADSVKGRFTISRDNAKNTVYLQMNSLKPEDTAVYYWNVVSRNSIRFDYWGQGTQVTVSS | high polyreactivity |
| QVQLVESGGGLVQAGGSLRLSCAASGRIFGRYAMGWYRQAPGKERELVAAITSSGGSTYYADSVKGRFTISRDNAKNTVYLQMNSLKPEDTAVYYCAADSQYKYDYWGQGTQVTVSS | high polyreactivity |
| QVQLVESGGGLVQAGGSLRLSCAASGRIFGRYAMGWYRQAPGKERELVAVISSGGSTYYADSVKGRFTISRDNAKNTVYLQMNSLKPEDTAVYYCAAVNRGGYDYWGQGTQVTVSS | low polyreactivity |
| QVQLVESGGGLVQAGGSLRLSCAASGRIFGRYAMGWYRQAPGKERELVAVISSGGSTYYADSVKGRFTISRDNAKNTVYLQMNSLKREDTAVYYCAAVNRGGYDYWGQGTQVTVSS | low polyreactivity |
| QVQLVESGGGLVQAGGSLRLSCAASGRIFGRYAMGWYRQAPGKEWELVAAISNGGTTTYADSVKGRFTLSRDNAKNTVYLQMNSLKPEDTAVYYCADDWSYKIYVIQRWYGVDYWGQGTQVTVSS | low polyreactivity |
| QVQLVESGGGLVQAGGSLRLSCAASGRIFGRYTMGWYRQAPGKERELVAAISARGGSTYYADSVKGRFTISRDNAKNTVYLQMNSLKPEDTAVYYCNTVRVHGFPIDRIYDYWGQGTQVTVSS | high polyreactivity |

| Sequence | polyreactivity (PSR sort gate) |
| --- | --- |
| QVQLVESGGGLVQAGGSLRLSCAASGRIFGSYAMGWYRQAPGKERELVAAISWRGTSTYYADSVKGRFTISRDNAKNTVYLQMNSLKPEDTAVYYCAARGLWPYDYWGQGTQVTVSS | low polyreactivity |
| QVQLVESGGGLVQAGGSLRLSCAASGRIFGSYAMGWYRQAPGKERELVAAITRSGGSTYYADSVKGRFTISRDNAKNTVYLQMNSLKPEDTAVYYCAAYFRFSGSAKFGYWGQGTQVTVSS | high polyreactivity |
| QVQLVESGGGLVQAGGSLRLSCAASGRIFGSYVMGWYRQAPGKERELVAAISIGGITKYADSVKGRFTISRDNAKNTVYLQMNSLKPEDTAVYYCAARLVRRYDYDYWGQGTQVTVSS | high polyreactivity |
| QVQLVESGGGLVQAGGSLRLSCAASGRIFGSYVMGWYRQAPGKERELVAAITDGGTTFYADSVKGRFTISRDNAKNTVYLPMNSLKPEDTAVYYCAARQAGYSGRKLYYWGQGTQVTVSS | low polyreactivity |
| QVQLVESGGGLVQAGGSLRLSCAASGRIFGTNAMGWYRPAPGKERELVADITSGGSTNYADSVKGRFTISRDNAKNTVYLQMNSLKPEDTAVYYCAAVLYSRLYWYRLDYWGQGTQVTVSS | low polyreactivity |
| QVQLVESGGGLVQAGGSLRLSCAASGRIFGTNAMGWYRQAPGKERELVAAINGSDSSTYYADSVKGRFTISRDNAKNTVYLQMNSLKPEDTAVYYCAADWDFFQQGANGAPYDYWGQGTQVTVSS | low polyreactivity |
| QVQLVESGGGLVQAGGSLRLSCAASGRIFGTNARVWYRQAPGKERELVADITSGGSTNYADSVKGRFTISRDNAKNTVYLQMNSLKPEDTAVYYCAADVIGDLRWYRDEYWGQGTQVTVSS | low polyreactivity |
| QVQLVESGGGLVQAGGSLRLSCAASGRIFGTYAMGWYRQAPGKERELFAAITLSDGSTYYADSVKGRFTISRDNAKNTVYLEMNTLKPEDTAVYYCAAVVDRFHPGLYEYWGQGTQVTVSS | low polyreactivity |
| QVQLVESGGGLVQAGGSLRLSCAASGRIFGTYAMGWYRQAPGKERELVAAISFRGGSTYYADTVNGRFTISRDNAKNTVYLQMNCLKPEDTAVYYCNARKRYSTDPGDYWGQGTQVTVSS | high polyreactivity |
| QVQLVESGGGLVQAGGSLRLSCAASGRIFGTYAMGWYRQAPGKERELVAAITSSGGRTYYADSVKGRFTISRDNAKNTVYLQMNRLKPEDTAVYYCAAYPWYRMWGQGTQVTVSS | high polyreactivity |
| QVQLVESGGGLVQAGGSLRLSCAASGRIFGTYAMGWYRQAPGKERELVDAISSSGTSTYYADSVKGRFTISRDNAKTTVYLQMNSLPPEDTAVYYCAVEAIDYAYAYYFRLGYDYWGQGTQVTVSS | low polyreactivity |
| QVQLVESGGGLVQAGGSLRLSCAASGRIFGVNAMGGDRQAPGKERELVAVISSGGSTYYADSVKGRFTISRDNAKNTVYLQMNSLKPEDTAVYYCAAGYLPDYDYWGQGTQVTVSS | low polyreactivity |
| QVQLVESGGGLVQAGGSLRLSCAASGRIFGVNAMGWYRQAPGKERELVAAINFSGGGTYYADSVKGRFTISRDNAKNTVYLQMTSLKPEDTAVYYCAADGPDYKWYYELDYWGQGTQVTVSS | low polyreactivity |
| QVQLVESGGGLVQAGGSLRLSCAASGRIFGVNAMGWYRQAPGKERELVADISSGGSTYYADSVKGRFTISRDNAKNTVYLQMNSLKPEDTAVYYCAKAPRGRGLYDYWGQGTQVTVSS | low polyreactivity |
| QVQLVESGGGLVQAGGSLRLSCAASGRIFGVYAMGWYRQAPGKERELVAAIDRRGGRTYYADSVKGRFTISRDNAKNTVYLQMNSLKPEDTAVYYCATARYRAEMGYWGQGTQVTVSS | high polyreactivity |
| QVQLVESGGGLVQAGGSLRLSCAASGRIFGVYAMGWYRQAPGKERELVAAIDRRGGTTYYADSVKGRFTISRDNAKNTVYLQMNSLKPEDTAVYYCAARSYPFIATYGYWGQGTQVTVSS | high polyreactivity |
